From patent US20140038895A1 (UNIVERSITY OF QUEENSLAND, published 2014)
Where no end group is shown, it is not given here.

T1: human RXFP1 (human, UniProt Q9HBX9 1-757)
T1 construct: whole, on cells; also called LGR7; RXFP1 receptor
T1 sequence (looked up): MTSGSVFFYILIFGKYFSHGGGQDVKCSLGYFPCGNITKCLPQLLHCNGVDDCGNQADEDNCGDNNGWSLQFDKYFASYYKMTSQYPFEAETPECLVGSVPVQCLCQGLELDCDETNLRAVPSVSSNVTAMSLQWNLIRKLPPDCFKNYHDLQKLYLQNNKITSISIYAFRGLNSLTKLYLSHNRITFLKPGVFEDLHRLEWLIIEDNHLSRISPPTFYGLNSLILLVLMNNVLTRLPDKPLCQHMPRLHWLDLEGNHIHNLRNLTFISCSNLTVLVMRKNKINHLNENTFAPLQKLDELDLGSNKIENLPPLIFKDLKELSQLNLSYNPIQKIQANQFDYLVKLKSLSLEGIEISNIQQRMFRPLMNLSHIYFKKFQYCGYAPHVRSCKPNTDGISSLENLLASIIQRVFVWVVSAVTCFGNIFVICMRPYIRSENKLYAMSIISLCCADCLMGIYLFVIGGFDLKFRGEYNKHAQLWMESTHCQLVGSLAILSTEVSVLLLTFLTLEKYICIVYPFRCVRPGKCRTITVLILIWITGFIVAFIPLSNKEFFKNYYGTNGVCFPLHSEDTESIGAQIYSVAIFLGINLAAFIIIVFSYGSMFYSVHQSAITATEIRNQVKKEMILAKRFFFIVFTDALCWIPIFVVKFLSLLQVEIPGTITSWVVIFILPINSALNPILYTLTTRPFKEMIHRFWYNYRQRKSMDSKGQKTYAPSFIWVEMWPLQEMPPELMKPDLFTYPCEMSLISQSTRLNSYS

T2: human RXFP3 (human, UniProt Q9NSD7 1-469)
T2 construct: whole, on cells; also called GPCR135; RXFP3 receptor
T2 sequence (looked up): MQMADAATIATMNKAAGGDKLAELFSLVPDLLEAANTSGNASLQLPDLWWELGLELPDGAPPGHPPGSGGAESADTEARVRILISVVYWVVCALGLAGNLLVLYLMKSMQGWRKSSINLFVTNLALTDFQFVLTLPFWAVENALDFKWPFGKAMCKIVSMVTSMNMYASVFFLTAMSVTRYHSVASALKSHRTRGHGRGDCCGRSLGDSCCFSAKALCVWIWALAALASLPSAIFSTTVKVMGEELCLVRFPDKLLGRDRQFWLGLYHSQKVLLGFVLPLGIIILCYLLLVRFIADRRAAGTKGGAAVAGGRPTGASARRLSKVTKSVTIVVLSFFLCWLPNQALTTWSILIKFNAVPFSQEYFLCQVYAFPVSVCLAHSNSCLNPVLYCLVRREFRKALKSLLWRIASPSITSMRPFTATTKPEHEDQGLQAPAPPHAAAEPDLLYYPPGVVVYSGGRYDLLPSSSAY

B1: H3 B1-22R (peptide)
peptide: RAAPYGVRLSGREFIRAVIFTSR-NH2
notes: Synthetic single chain peptide; also called R3 B1-22R; R3 1-22R
B2: H3 B-chain C10/22S (peptide)
peptide: RAAPYGVRLSGREFIRAVIFTSGGSRW-OH
notes: Synthetic single chain peptide; also called H3 relaxin B chain; native H3 B chain

molecular target: T1, human RXFP1; experiment: competition binding vs Eu-DTPA-H2 relaxin on HEK-293T cells transfected with RXFP1 (FIG. 7)
Procedure: (§1) Binding assays were carried out as follows. […] The cells were incubated at room temperature for 60 min before the peptide solution was aspirated off and the cells washed with PBS.

Row | Binder | binding result
1 | B1 | binds

molecular target: T2, human RXFP3; experiment: competition binding vs Eu-DTPA-R3/I5 on HEK-293T cells expressing human RXFP3 (Table 2 cell: 'No activity')
Procedure: as §1

Row | Binder | binding result
2 | VRLSGREFIRAVIFTSR-NH2 (Synthetic single chain peptide) [H3 B7-22R] | no binding
3 | RAAPYGVRLSGREFIRAVIFTS-NH2 (Synthetic single chain peptide) [H3 B1-22] | no binding

molecular target: T2, human RXFP3; experiment: competition binding vs Eu-DTPA-R3/I5 on HEK-293T cells stably expressing human RXFP3, time-resolved fluorescence, n = 3
Procedure: as §1

Row | Binder | pIC50
4 | B2 | 5.6
5 | RAAPYGVRLSGREFIRAVIFTSR-OH (Synthetic single chain peptide) [H3 B1-22R Acid] | 6.46
6 | APYGVRLSGREFIRAVIFTSR-NH2 (Synthetic single chain peptide) [H3 B3-22R] | 6.71
7 | B1 | 7.75
8 | RAAPYGVRLAGREFIRAVIFTAR-NH2 (Synthetic single chain peptide) [H3 B1-22R C10/22A] | 6.83
9 | AAPYGVRLSGREFIRAVIFTSR-NH2 (Synthetic single chain peptide) [H3 B2-22R] | 7.06
10 | GVRLSGREFIRAVIFTSR-NH2 (Synthetic single chain peptide) [H3 B6-22R] | 6.33
11 | YGVRLSGREFIRAVIFTSR-NH2 (Synthetic single chain peptide) [H3 B5-22R] | 6.37
12 | PYGVRLSGREFIRAVIFTSR-NH2 (Synthetic single chain peptide) [H3 B4-22R] | 6.66
